The target of test [1] is cynomolgus TCR/CD3 expressed on cells (cynomolgus). Nature of the test: cell-based or functional assay.
For test [2], the target named is recombinant human CD123 protein (R&D Systems, 301-R3/CF) (human) (UniProt P26951). The test can be described thus: ELISA, antibody 7G3 coated at 1 µg/ml, in house biotinylated recombinant CD123 titrated (concentration axis taken as CD123 per paragraph 750).
The target is the same in test [3]. The test can be described thus: competition ELISA, coated antibody 7G3, 4 nM biotinylated recombinant CD123, antibody 7G3 in solution titrated.

recombinant human CD123 protein (R&D Systems, 301-R3/CF) (human), sequence (P26951 19-305): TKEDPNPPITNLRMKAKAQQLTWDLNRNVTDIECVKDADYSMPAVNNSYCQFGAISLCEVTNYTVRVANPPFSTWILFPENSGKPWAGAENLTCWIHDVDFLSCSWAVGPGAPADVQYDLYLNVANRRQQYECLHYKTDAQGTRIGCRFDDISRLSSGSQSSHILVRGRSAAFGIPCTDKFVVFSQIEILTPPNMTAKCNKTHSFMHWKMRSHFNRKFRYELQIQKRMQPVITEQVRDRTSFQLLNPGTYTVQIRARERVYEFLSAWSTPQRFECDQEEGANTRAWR

B1: T017000135 (bispecific antibody)
chain: DVQLVESGGGLVQAGGPLRLSCAASGRTFSSYVMGWFRQAPGKEREFVAAIYWSNGKTQYTDSVKGRFTISGDNAKNTVYLQMNSLNPEDTAVYYCVADKDETGFRTLPIAYDYWGQGTLVTVSSGGGGSGGGGSGGGGSGGGGSGGGGSGGGGSGGGGSEVQLVESGGGLVQPGGSLRLSCVASGDVHKINFLGWYRQAPGKEREKVAHISIGDQTDYADSAKGRFTISRDESKNMVYLQMNSLKPEDTAVYFCRAFSRIYPYDYWGQGTLVTVSSGGGGSGGGGSGGGGSGGGGSGGGGSGGGGSGGGGSEVQLVESGGGLVQAGGSLRLSCAASGITSKINDMGWYRQTPGNYREWVASITATGTTNYRDSVKGRFTISRDNAKSTVYLQMNSLKPEDTTVYYCNTFPPISNFWGQGTLVTVSSA
For the molecule B1, in test [1], the % lysis, redirected cyno T cell mediated killing of KG1a cells, flow cytometry is 22% and the EC50 (M), redirected cyno T cell mediated killing of KG1a cells, flow cytometry was 2.4e-11 M.

B2: mouse monoclonal anti-CD123 antibody (clone 7G3) (antibody, from another filing, V domains shown)
VH: EVQLQQSGPELVKPGASVKMSCKASGYTFTDYYMKWVKQSHGKSLEWIGDIIPSNGATFYNQKFKGKATLTVDRSSSTAYMHLNSLTSEDSAVYYCTRSHLLRASWFAYWGQGTLVTVSA
VL: DFVMTQSPSSLTVTAGEKVTMSCKSSQSLLNSGNQKNYLTWYLQKPGQPPKLLIYWASTRESGVPDRFTGSGSGTDFTLTISSVQAEDLAVYYCQNDYSYPYTFGGGTKLEIK
As to B2, the EC50 (read off the curve) in test [2] stood at 10 nM. Besides, the IC50 (read off the curve) in test [3] was found to be 2 nM.

The record behind these values is patent US20240199740A1.
